# From the supplement of paper PMC7877785
# ± gives the uncertainty stated by the source.
# Assay: self-splicing fitness, log relative to wild type (ln ratio); higher = more splicing; Tetrahymena group I intron in knt gene, E. coli kanamycin selection, DiMSum; sequences stand for … in CUCUCU…GGAGGGAAAAGUUAUCAGGCAUGCACCUGGUAGCUAGUCUUUAAACCAAUAGAUUGCAUCGGUUUAAAAGGCAAGACCGUCAAAUUGCGGGAAAGGGGUCAACAGCCGUUCAGUACCAAGUCUCAGGGGAAACUUUGAGAUGGCCUUGCAAAGGGUAUGGUAAUAAGCUGACGGACAUGGUCCUAACCACGCAGCCAAGUCCUAAGUCAACAGAUCUUCUGUUGAUAUGGAUGCAGUUCACAGACUAAAUGUCGGUCGGGGAAGAUGUAUUCUUCUCAUAAGAUAUAGUCGGACCUCUCCUUAAUGGGAGCUAGCGGAUGAAGUGAUGCAACACUGGAGCCGCUGGGAACUAAUUUGUAUGCGAAAGUAUAUUGAUUAGUUUUGGAGUACUCGUGGUCG
# Method in brief: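 A randomised library covering all eight P1ex-region intron nucleotides was built with the intron in the knt kanamycin-resistance gene on pET-22b(+) and held in E. coli BL21(DE3). Cells were grown overnight at 37°C or 30°C on LB agar, with or without 25 μg/mL kanamycin, plus 100 μg/mL carbenicillin, 50 μM IPTG and 0.2% rhamnose, and pooled colonies were amplicon-sequenced on an Illumina HiSeq 2500. DiMSum fitness is the error-weighted combination of wild-type-normalised replicate fold changes, kanamycin versus none.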
Sequence,self-splicing fitness (ln) (30 °C),self-splicing fitness (ln) (37 °C)
UCUGAGCAAUAUUACGUGGA,-2.95 ± 0.29,-1.63 ± 0.18
AGUCAGCAAUAUUACGGCCA,-0.485 ± 0.14,-0.0722 ± 0.2
UCUUAGCAAUAUUACGGAAU,-4.47 ± 0.26,-1.93 ± 0.16
CCCUAGCAAUAUUACGGAGG,-2.87 ± 0.15,-2.77 ± 0.26
CCUUAGCAAUAUUACGCUAC,-2.32 ± 0.27,-2.26 ± 0.27
UGGCAGCAAUAUUACGUCAG,-0.12 ± 0.074,-0.817 ± 0.11
ACGGAGCAAUAUUACGAUCG,-0.961 ± 0.088,-1.14 ± 0.14
AGUGAGCAAUAUUACGUAAU,-3.13 ± 0.15,-1.7 ± 0.15
UAUGAGCAAUAUUACGUUUG,-3.93 ± 0.26,-1.8 ± 0.15
AGGCAGCAAUAUUACGUUCG,-0.642 ± 0.079,-0.181 ± 0.11
UGGCAGCAAUAUUACGGAGU,-2.61 ± 0.17,-3.96 ± 0.31
ACGAAGCAAUAUUACGUUUU,-4.13 ± 0.16,-1.8 ± 0.11
ACGCAGCAAUAUUACGGCCU,0.271 ± 0.063,0.881 ± 0.091
UCUAAGCAAUAUUACGGGCC,-3.14 ± 0.33,-2.09 ± 0.33
GGCAAGCAAUAUUACGAAAC,-0.925 ± 0.13,-0.903 ± 0.16
AGAAAGCAAUAUUACGCUGA,-3.08 ± 0.21,-0.267 ± 0.15
UCAUAGCAAUAUUACGCUAU,-2.88 ± 0.39,-2.08 ± 0.47
AUAAAGCAAUAUUACGGGAG,-1.52 ± 0.11,-1.23 ± 0.14
UCUCAGCAAUAUUACGCAUC,-3.51 ± 0.21,-2.32 ± 0.2
CCGAAGCAAUAUUACGUGAA,-3.64 ± 0.16,-2.82 ± 0.14
CGGUAGCAAUAUUACGAGUA,–,-1.32 ± 0.4
ACGCAGCAAUAUUACGUUUA,-2.58 ± 0.12,-1.42 ± 0.095
GGUCAGCAAUAUUACGAUCU,-1.8 ± 0.17,-1.93 ± 0.24
AUCGAGCAAUAUUACGCACA,-2.46 ± 0.16,-0.76 ± 0.11
CUAGAGCAAUAUUACGCCUA,-2.2 ± 0.14,-1.15 ± 0.12

Sequence,self-splicing fitness (ln) (30 °C),self-splicing fitness (ln) (37 °C)
UGAGAGCAAUAUUACGUGAA,-4.19 ± 0.33,-2.35 ± 0.27
GCGCAGCAAUAUUACGUGGC,-1.81 ± 0.29,-2.36 ± 0.29
AACAAGCAAUAUUACGGGCG,-0.896 ± 0.075,-1.08 ± 0.089
GCCUAGCAAUAUUACGCGCU,-2.19 ± 0.13,-0.269 ± 0.11
UCGCAGCAAUAUUACGGAAG,-2.74 ± 0.25,-1.74 ± 0.22
UCCAAGCAAUAUUACGUUAG,-1.97 ± 0.13,-2.91 ± 0.28
AGGGAGCAAUAUUACGAGUC,-2.9 ± 0.3,–
GCGAAGCAAUAUUACGCAGC,-3.31 ± 0.25,-2.06 ± 0.34
GGUGAGCAAUAUUACGCAUU,-1.28 ± 0.25,-1.89 ± 0.34
AUGCAGCAAUAUUACGUUCU,-0.207 ± 0.058,0.262 ± 0.079
CGGCAGCAAUAUUACGUUCG,–,-1.23 ± 0.16
AACGAGCAAUAUUACGCUCG,-2.55 ± 0.35,–
UGACAGCAAUAUUACGUAAA,-1.01 ± 0.08,-1.26 ± 0.11
CAAUAGCAAUAUUACGCGGU,-3.88 ± 0.19,-3.12 ± 0.2
ACGGAGCAAUAUUACGGUAC,-4.95 ± 0.36,-2.3 ± 0.22
GGUCAGCAAUAUUACGUAGA,-0.689 ± 0.081,-0.164 ± 0.096
CUUCAGCAAUAUUACGGUAA,-1.67 ± 0.23,-1.88 ± 0.17
AAUCAGCAAUAUUACGAACC,-0.433 ± 0.11,0.499 ± 0.18
UACCAGCAAUAUUACGAAGU,-2.48 ± 0.22,-2.74 ± 0.28
AAGGAGCAAUAUUACGGACG,–,-0.216 ± 0.26
CCGCAGCAAUAUUACGUGGG,-3.41 ± 0.12,-3.02 ± 0.17
AAUCAGCAAUAUUACGUAAA,-0.168 ± 0.067,0.573 ± 0.099
CGUCAGCAAUAUUACGCAAA,-2.96 ± 0.17,-1.12 ± 0.16
UCCAAGCAAUAUUACGGAAG,-1.85 ± 0.2,-1.8 ± 0.24
GGCGAGCAAUAUUACGUUGU,-3.25 ± 0.18,-2.48 ± 0.25

Sequence,self-splicing fitness (ln) (30 °C),self-splicing fitness (ln) (37 °C)
CUGGAGCAAUAUUACGACAA,-2.11 ± 0.2,-1.7 ± 0.2
AGAAAGCAAUAUUACGAUCC,-0.604 ± 0.07,0.0529 ± 0.11
AGCUAGCAAUAUUACGGGCU,-3.47 ± 0.27,-2.91 ± 0.36
GCUUAGCAAUAUUACGAGAG,-1.52 ± 0.23,-0.67 ± 0.2
GUGUAGCAAUAUUACGGCGU,-1.42 ± 0.11,-1.04 ± 0.12
UACGAGCAAUAUUACGAGGU,-3.41 ± 0.19,-3.16 ± 0.17
GCGAAGCAAUAUUACGGCGU,-2.68 ± 0.37,-0.799 ± 0.46
UUGCAGCAAUAUUACGAGAU,-3.6 ± 0.34,-2.64 ± 0.36
GCGCAGCAAUAUUACGGCUC,-0.438 ± 0.12,0.47 ± 0.15
AUCUAGCAAUAUUACGGACA,-0.495 ± 0.14,0.224 ± 0.13
CUUAAGCAAUAUUACGAGAC,–,-3.26 ± 0.43
UUAGAGCAAUAUUACGAAAC,-2.21 ± 0.41,–
GCGCAGCAAUAUUACGCUUU,-1.39 ± 0.068,-0.38 ± 0.083
GUCGAGCAAUAUUACGUGGA,–,-2.46 ± 0.26
AUUUAGCAAUAUUACGAUAA,-1.53 ± 0.2,-0.502 ± 0.39
UUCAAGCAAUAUUACGGAUA,-1.18 ± 0.14,-0.384 ± 0.12
CACGAGCAAUAUUACGAGUC,–,-1.63 ± 0.29
ACCUAGCAAUAUUACGUUAG,-3.59 ± 0.14,-2.69 ± 0.19
AACCAGCAAUAUUACGAUGC,-1.49 ± 0.076,-0.673 ± 0.082
GACAAGCAAUAUUACGCGAA,-2.8 ± 0.16,-1.88 ± 0.14
ACAGAGCAAUAUUACGUCUU,-1.48 ± 0.18,-1.98 ± 0.18
UAUUAGCAAUAUUACGUCCC,-2.83 ± 0.42,-0.713 ± 0.46
AUUAAGCAAUAUUACGAGGG,–,-2.96 ± 0.36
GGCAAGCAAUAUUACGAGUU,-1.94 ± 0.081,-0.521 ± 0.088
UCGCAGCAAUAUUACGCGCU,-1.23 ± 0.12,-1.19 ± 0.21

Sequence,self-splicing fitness (ln) (30 °C),self-splicing fitness (ln) (37 °C)
GGAAAGCAAUAUUACGCCAC,-2.68 ± 0.33,–
CUCAAGCAAUAUUACGCGAG,-2.5 ± 0.2,-3.14 ± 0.3
GUGCAGCAAUAUUACGGACG,-2.47 ± 0.1,-0.949 ± 0.11
CAGGAGCAAUAUUACGGCUA,-2.6 ± 0.19,-1.34 ± 0.16
ACUUAGCAAUAUUACGCGGU,-3.26 ± 0.41,-1.84 ± 0.26
UGACAGCAAUAUUACGAGCU,-2.11 ± 0.083,-1.53 ± 0.083
ACUCAGCAAUAUUACGCCUU,-0.619 ± 0.053,0.491 ± 0.067
CUUAAGCAAUAUUACGUUAU,-3.09 ± 0.14,-2.51 ± 0.2
AGGGAGCAAUAUUACGACAC,–,-1.18 ± 0.29
GCGUAGCAAUAUUACGGAGA,-2.63 ± 0.21,-1.87 ± 0.23
UCCCAGCAAUAUUACGCCUA,-1.41 ± 0.078,-1.34 ± 0.08
AGUAAGCAAUAUUACGGGCC,-1.48 ± 0.2,-0.26 ± 0.15
AAUUAGCAAUAUUACGUCAU,-2.24 ± 0.18,-1.7 ± 0.17
GUGCAGCAAUAUUACGAAUU,-1.43 ± 0.091,-0.441 ± 0.12
GAAGAGCAAUAUUACGAUGC,-2.13 ± 0.16,-1.9 ± 0.18
CACAAGCAAUAUUACGCUGA,-2.12 ± 0.12,-1.72 ± 0.12
UAGUAGCAAUAUUACGACCC,-0.998 ± 0.35,-1.28 ± 0.43
UUAAAGCAAUAUUACGAGAU,-3.41 ± 0.21,-2.19 ± 0.21
CAAGAGCAAUAUUACGUGGU,-3.24 ± 0.11,-2.46 ± 0.16
UCCCAGCAAUAUUACGGUUU,-1.23 ± 0.061,-0.274 ± 0.076
GUCCAGCAAUAUUACGCUGA,-0.534 ± 0.092,-0.466 ± 0.13
UCUGAGCAAUAUUACGUUUU,-4.31 ± 0.29,-3.26 ± 0.28
AGAAAGCAAUAUUACGAUAC,-1.78 ± 0.14,-1.54 ± 0.19
UGACAGCAAUAUUACGCAGG,-3.54 ± 0.35,-1.4 ± 0.2
